The numbers were not newly measured in US20250304973, which cites them from elsewhere.

The target of this data set is alpha-thrombin (native) (Homo sapiens) (UniProt P00734+P00734). To be noted: CITED; linker not given.

On to HD1-22 bivalent (HD1 linked to HD22), for which the Kd was 0.65 nM.

As a reminder, the Kd is the concentration at which binding is half-saturated.
